From US20240368269A1 (Memorial Sloan Kettering, published 2024)
Residue numbers refer to the chain shown, from its start.

T1: DLL3 (target in the Fab-Zap internalization assay) (UniProt Q9NYJ7 27-618, limits assumed)
T1 sequence (looked up): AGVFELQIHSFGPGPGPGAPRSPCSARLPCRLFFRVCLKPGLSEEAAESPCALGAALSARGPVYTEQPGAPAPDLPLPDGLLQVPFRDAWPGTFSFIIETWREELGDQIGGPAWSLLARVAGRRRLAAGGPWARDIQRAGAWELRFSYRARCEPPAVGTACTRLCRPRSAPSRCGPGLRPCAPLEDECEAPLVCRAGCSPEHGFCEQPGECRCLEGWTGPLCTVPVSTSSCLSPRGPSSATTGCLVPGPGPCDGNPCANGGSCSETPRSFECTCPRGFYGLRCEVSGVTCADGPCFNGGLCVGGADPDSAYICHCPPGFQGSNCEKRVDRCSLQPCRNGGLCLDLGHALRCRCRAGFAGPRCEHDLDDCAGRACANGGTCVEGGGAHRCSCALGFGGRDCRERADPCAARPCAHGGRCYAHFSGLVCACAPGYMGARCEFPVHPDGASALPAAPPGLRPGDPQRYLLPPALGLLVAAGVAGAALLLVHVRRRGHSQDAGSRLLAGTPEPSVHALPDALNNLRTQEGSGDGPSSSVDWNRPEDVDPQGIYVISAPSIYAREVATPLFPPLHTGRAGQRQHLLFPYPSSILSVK

B1: B22 (antibody, V domains shown)
VH: EVQLVESGGGLVQPGGSLRLSCAASGFTFNNFWMSWVRQAPGKGLEWVANIKQDGSEKYYVDSVKGRFTISRDNAKNSLYLQMNSLRAEDTAVYYCARESYFDLWGRGTLVTVSS
VL: QAVVTQESALTTSPGETVTLTCRSSTGAVTTSNYANWVQEKPDHLFTGLIGGTNNRAPGVPARFSGSLIGDKAALTITGAQTEDEAIYFCALWYSNRWVFGGGTKLTVL
B2: N10 (antibody, V domains shown)
VH: QVQLVQSGAEVKKPGASVKVSCKASGYTFTGYYMHWVRQAPGQGLEWMGWINPHSGAPNSAQKFQVRVTMTRDTSISTAYMELSRLRSDDTAVYYCARDSSGWYGDAFDIWGQGTMVTVSS
VL: not shown
B3: K19 (antibody, V domains shown)
VH: QVQLVQSGAEVKKPGASLKVSCKTSGYTFNSYYMHWVRQAPGQGLEWMGINNPSGGTTSYAQKFQGRVTMTRDTSTSTVYMELSSLRSEDTAVYYCARDWGEQYGMDVWGQGTTVTVSS
VL: not shown
B4: I1 (antibody, V domains shown)
VH: EVQLVESGGGLVKPGGSLRLSCAASGFTFSNTWMSWVRQAPGKGLEWVGRIKSKSDGGTTDYAAPVKGRFTISRDDSKNTLYLQMNSLKTEDTAVYYCTQYYWNSFDYWGQGTLVTVSS
VL: not shown
B5: G23 (antibody, V domains shown)
VH: QVQLVQSGAEVKKPGASVKVSCKASGYTFTSYYIHWVRQAPGQGLEWMGIIDPSDGSTNYAQKFQGRVTMTRDTSTSTVYMELSSLRSEDTAVYYCARDREYNYYGLDVWGQGTTVTVSS
VL: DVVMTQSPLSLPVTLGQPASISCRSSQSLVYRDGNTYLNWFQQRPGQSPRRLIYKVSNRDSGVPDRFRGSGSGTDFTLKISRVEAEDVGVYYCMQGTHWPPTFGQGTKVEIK
B6: L22 (antibody, V domains shown)
VH: EVQLLESGGGLVQPGGSLRLSCAASGFTFSSYAMGWVRQTPGKGLEWVSTISGRGGDTYYADSVKGRFTISRDNSKNTLYLQMNSLRAEDTAIYYCAKERGLGFDYWGQGTLVTVSS
VL: DIVMTQTPLSLPVTPGEPASISCRSSQSLLDSDDGNTYLDWYLQKPGQSPQLLIYTLSYRASGVPDRFSGSGSGTDFTLKISRVEAEDVGVYYCMQHLEFPLTFGGGTKVEIK
B7: A18 (antibody, V domains shown)
VH: QVTLRESGPALVKSTQTLTLTCTFSGFSLSTSGMCVSWIRQTPGKALEWLALIDWDDNKYYSTSLKTRLIISKDTSKNQVVLTMTNMEPVDTATYYCARIRGYSGSYDAFDIWGQGTMVTVSS
VL: DIVMTQSPLSLPVTPGEPASISCRSSQSLLHSNGYNYLDWYLQKPGQSPHILLYLGSNRAPGVPDRFSGSGSGTDFTLKISRVEAEDVGVYYCMQALQTPFTFGPGTKVDIK
B8: E23 (antibody, V domains shown)
VH: QVQLVQSGAEVRKPGASVKVSCKASGYTFTGYYMHWVRQAPGQGLEWMGWINSYSGGANYAQKFQDRVTMTRDTSVSTASMELSRLRSDDTAVYYCARDGSGWYGSYFDFWGQGTLVTVSS
VL: DIVMTQTPLSSPVTLGQPASISCRSSQSLVHSDGNTYLSWLQQRPGQPPRLLIYKISNRFSGVPDRFSGSGAGTDFTLKISRVEAEDVGFYYCIQTTQFPLTFGGGTKVEIK
B9: P4 (antibody, V domains shown)
VH: EVQLVESGGGLVKPGGSLRLSCAASGFTFSFYSMNWVRQAPGKGLEWVSSISSSSSYIYYADSVKGRFTISRDNAKNSLYLQMNSLRAEDTAVYYCARNYDFWRGAFDIWGQGTMVTVSS
VL: not shown
B10: F9 (antibody, V domains shown)
VH: QVQLVQSGAEVKKPGASVQVSCKASGYTFTSYYMHWVRQAPGQGLEWMGIINPSGGSTSYAQKFQGRVTMTRDTSTSTVYMELSSLRSEDTAVYYCARQGGAQWLVLAFDIWGQGTMVTVSS
VL: EIVLTQSPGTLSLSPGERATLSCRASQSVSSYLAWYQQKPGQPPRLLIYGASSRATGIPDRFSGGGSGTDFTLTISRLEPEDFAVYYCQQYDSSPYTFGQGTKLEIK
B11: G16 (antibody, V domains shown)
VH: B10 VH
VL: B10 VL with P43A, D92G
B12: D8 (antibody, V domains shown)
VH: QVQLVQSGAEVKKPGASVKVSCKASGYTFTTYYMHWVRQAPGQGLEWMGIINPSGGSTSYAQKFQGRVTMTRDTSTSTVYMELSSLRSEDTAVYYCARQGHYIGNYLDYWGQGTLVTVSS
VL: not shown
B13: L12 (antibody, V domains shown)
VH: B12 VH with T31S, T58R, G100L, H101E, Y102L, I103L, Y106A, L107F, Y109I, L115M
VL: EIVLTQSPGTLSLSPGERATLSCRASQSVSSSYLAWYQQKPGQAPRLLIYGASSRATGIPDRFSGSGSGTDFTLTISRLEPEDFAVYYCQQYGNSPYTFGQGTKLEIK
B14: C22 (antibody, V domains shown)
VH: B12 VH with T31S, Q99V, G100A, H101D, Y102I, I103V, N105A, Y106T, L107F
VL: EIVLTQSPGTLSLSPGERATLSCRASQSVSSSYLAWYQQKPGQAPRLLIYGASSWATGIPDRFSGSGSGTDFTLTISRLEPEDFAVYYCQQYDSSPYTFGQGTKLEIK
B15: J23 (antibody, V domains shown)
VH: B12 VH with T31S, P53Y, T58K, A92G, H101R, I103S, N105S
VL: not shown
B16: M11 (antibody, V domains shown)
VH: QVQLVQSGAEVKKPGASVKVSCKASGYTFTSYYIHWVRQAPGQGLEWMGIINPSGGSKSYAQKFQGRVTMTRDTSTGTVYMELSSLRSEDTAVYYCAGQLELLGNAFDIWGQGTMVTVSS
VL: not shown
B17: G3 (antibody, V domains shown)
VH: QVQLQESGPGLVKPSETLFLTCTVSGGSISSYYWTWIRQPAGKGLEWIGRIYTSGSTNYNPSLKSRVTMSVDTSKNQFSLKLSSVTAADTAVYYCAREDWESWTFDIWGQGTMVTVSS
VL: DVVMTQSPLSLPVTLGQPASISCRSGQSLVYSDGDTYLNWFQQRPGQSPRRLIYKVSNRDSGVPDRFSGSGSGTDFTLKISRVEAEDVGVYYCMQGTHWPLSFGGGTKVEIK
B18: C8 (antibody, V domains shown)
VH: EVQLVESGGGLVQPGGSQRLSCAASGFTFSSYWMNWVRQAPGKGLEWVANIKEDGSEKYYVDSVKGRFTISRDNAKNSLYLQMNSLRAEDTAVYYCARDPGWAPFDYWGQGTLVTVSS
VL: DIQMSQSPSSLSASVGDRVTITCRASQGISNYLAWFQQKPGKAPKSLIYAASSLQSGVPSKFSGSGSGTDFTLAISSLQPEDFATYYCQQYNSFPYTFGQGTTLEIK
B19: E9 (antibody, V domains shown)
VH: QVQLVQSGAEVKKPGASVKVSCKASGYTFTSYYMHWVRQAPGQGLEWMGVINSSGGSTSYAQKFQGRVTMTRDTSTSTVYMDLSSLRSEDTAVYYCARGYCTNGVYYDEDFDYWGQGTLVTVSS
VL: B18 VL with S5T, N31H, K45T, A74T, F94Y, Y96L, Q100G, T103K, L104V
B20: O24 (antibody, V domains shown)
VH: QVQLVQSGAEVKKPGASVKVSCKASGYTFTSYYLHWVRQAPGHGLEWMAIINPSGGSTSYAQKFLGRVTMTRDTSTNTVYMELSSLRSEDTAVYYCARERQQLDYYYFAMDVWGQGTTVTVSS
VL: B18 VL with S5T, A74T, F94Y, Y96P, T103K, L104V
B21: J8 (antibody, V domains shown)
VH: QVHLVQSGAEVKKPGASVKVSCKASGYTFTIYYIHWVRQAPGQGLEWMGIINPSGGSTSYAQKFQGRVTMTRDTSTSTVYMELSSLRSEDTAVYYCSGNDYVDYVTTDYYGMDVWGQGTTVTVSS
VL: B18 VL with S5T, A74T, F94S, T103K
B22: F21 (antibody, V domains shown)
VH: EVQLVESGGGLVQPGGSLRLSCAASGFTFSSYWMSWVRQAPGKGLEWVANIKQDGSEKYYVDSVKGRFTISRDNAKNSLYLQMNSLRAEDTAVYYCAREWLRFGGLVYWGQGTLVTVSS
VL: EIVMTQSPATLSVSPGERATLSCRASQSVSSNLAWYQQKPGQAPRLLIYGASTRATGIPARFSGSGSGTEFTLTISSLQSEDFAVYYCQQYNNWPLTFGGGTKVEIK
B23: O18 (antibody, V domains shown)
VH: QVQLQESGPGLVKPSETLSLTCTVSGGSINSYYWSWIRQPPGKGLEWIGYIFYSGITNYNPSLKSRVTISLDTSKNQFSLKLSSVTAADTAVYYCARIGVAGFYFDYWGQGTLVTVSS
VL: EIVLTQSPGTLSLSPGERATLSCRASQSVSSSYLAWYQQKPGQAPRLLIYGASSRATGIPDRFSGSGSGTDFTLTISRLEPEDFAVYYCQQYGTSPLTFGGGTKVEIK

Molecular target: T1, DLL3 (target in the Fab-Zap …)
Test: cell-based or functional assay

| Binder | Percent Max Killing (Fab-Zap internalization assay, 10 ug/ml) |
| --- | --- |
| B1 | 61.9% |
| B2 | 74% |
| B3 | 71% |
| B4 | 97% |
| B5 | 94% |
| B6 | 82% |
| B7 | 67% |
| B8 | 88.7% |
| B9 | 68% |
| B10 | 70% |
| B11 | 46% |
| B12 | 68% |
| B13 | 61% |
| B14 | 69.1% |
| B15 | 59.5% |
| B16 | 65.2% |
| B17 | 86% |
| B18 | 89% |
| B19 | 61.4% |
| B20 | 80.3% |
| B21 | 64% |
| B22 | 20% |
| B23 | 88% |
